Reference: patent publication US20020068706A1 (GPC BIOTECH, published 2002)

Columns and labels:
CDK4/cyclin D1 complex [1] = biological target: T1, CDK4/cyclin D1 complex (UniProt P11802 1-303; P24385 1-295); experiment: inhibition constant from in vitro kinase assay (Sf9 extract, Gst-Rb substrate)
T1 construct: also called cyclin D1/CDK4 complex

CDK4/cyclin D1 complex [2] = biological target: T1, CDK4/cyclin D1 complex; experiment: cell-based or functional assay
CDK2/cyclin E complex = CDK2/cyclin E complex (UniProt P24941 1-298); experiment: cell-based or functional assay
CDK2/cyclin A complex = CDK2/cyclin A complex (UniProt P24941 1-298); experiment: cell-based or functional assay
cdc2/cyclin B complex = cdc2/cyclin B complex (UniProt P06493 1-297); experiment: cell-based or functional assay
Sequence of cdc2/cyclin B complex (P06493 whole entry, one chain of several): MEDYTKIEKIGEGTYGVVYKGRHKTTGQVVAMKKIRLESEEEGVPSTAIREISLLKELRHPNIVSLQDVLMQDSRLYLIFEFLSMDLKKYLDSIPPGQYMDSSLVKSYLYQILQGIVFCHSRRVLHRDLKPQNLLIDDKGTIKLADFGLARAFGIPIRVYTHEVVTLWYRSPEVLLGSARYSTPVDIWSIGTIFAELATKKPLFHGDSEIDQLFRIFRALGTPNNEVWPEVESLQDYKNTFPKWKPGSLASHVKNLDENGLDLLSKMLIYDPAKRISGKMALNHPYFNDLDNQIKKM

T1 sequence (P11802 whole entry, chain 1 of 2): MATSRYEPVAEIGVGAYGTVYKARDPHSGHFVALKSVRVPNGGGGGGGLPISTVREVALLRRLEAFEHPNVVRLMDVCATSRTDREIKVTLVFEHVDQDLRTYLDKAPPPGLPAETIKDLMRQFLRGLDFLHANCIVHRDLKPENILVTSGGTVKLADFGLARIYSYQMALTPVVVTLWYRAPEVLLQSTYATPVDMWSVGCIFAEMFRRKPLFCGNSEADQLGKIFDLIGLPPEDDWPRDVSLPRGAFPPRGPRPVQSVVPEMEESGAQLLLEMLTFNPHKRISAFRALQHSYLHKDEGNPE
T1 sequence (P24385 whole entry, chain 2 of 2): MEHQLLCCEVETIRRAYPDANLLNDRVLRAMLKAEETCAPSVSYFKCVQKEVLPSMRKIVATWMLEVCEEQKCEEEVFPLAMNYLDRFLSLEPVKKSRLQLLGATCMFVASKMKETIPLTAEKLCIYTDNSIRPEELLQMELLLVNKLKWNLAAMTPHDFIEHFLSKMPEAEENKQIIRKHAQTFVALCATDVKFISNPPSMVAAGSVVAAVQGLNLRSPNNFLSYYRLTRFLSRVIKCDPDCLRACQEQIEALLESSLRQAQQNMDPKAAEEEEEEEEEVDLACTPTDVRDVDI

B1: p16 (other, human, UniProt P42771 1-156, looked up)
chain: MEPAAGSSMEPSADWLATAAARGRVEEVRALLEAGALPNAPNSYGRRPIQVMMMGSARVAELLLLHGAEPNCADPATLTRPVHDAAREGFLDTLVVLHRAGARLDVRDAWGRLPVDLAEELGHRDVARYLRAAAGGTRGSNHARIDAAEGPSDIPD
notes: also called p16^Ink4/MTS1; p16^INK4A
CDK4/cyclin D1 complex [1]
  Ki: 75 nM
CDK4/cyclin D1 complex [2]
  IC50 of in vitro kinase assay (32P incorporation into Gst-Rb): 250 nM
CDK2/cyclin E complex
  IC50 of in vitro kinase assay (32P incorporation into Gst-Rb): > 500 nM
CDK2/cyclin A complex
  IC50 of in vitro kinase assay (32P incorporation into Gst-Rb): > 500 nM
cdc2/cyclin B complex
  IC50 of in vitro kinase assay (32P incorporation into Gst-Rb): > 500 nM
